Test results taken from patent publication US20240398896A1, “INFLAMMASOME INHIBITION” (National University of Singapore, priority 2021, published 2024).

Experiments:
[1] = molecular target: T1, PYD-PYD interaction of human ASC (Homo sapiens, UniProt Q9ULZ3); test: NanoBiT inhibition assay of PYD-PYD interaction in HEK293T cells; assay type: cell-based; settings: LgBiT/SmBiT-tagged PYD pairs 10 or 1 ng each, bat ASC2-LSSmOrange 10 ng, FIG. 19, 20
T1 construct: Human ASC PYRIN domain (PYD) was PCR amplified; linker […]; expressed in transfected cells; host or cells: HEK293T
T1 sequence (Q9ULZ3 1-91 limits assumed): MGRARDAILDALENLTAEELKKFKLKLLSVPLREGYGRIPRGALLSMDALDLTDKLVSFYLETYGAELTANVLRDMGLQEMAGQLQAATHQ
Description: Plasmids. Vectors were constructed by standard molecular cloning with pcDNA3.1 (+) as the backbone. Restriction enzyme sites used include NheI, AgeI (introduced), HindIII, BamHI, XhoI, and XbaI from 5′ to 3′ sequentially. […]. The N-terminal and C-terminal inserts of human ASC PYD or NanoBiT tags were flanked by AgeI/HindIII and BamHI/XhoI, respectively. The linker (GSSGGGGSGGGGSSG) flanked by HindIII/BamHI and C-terminal His10-tag flanked by XhoI/XbaI was oligo annealed. The gene fragments were introduced into the backbone by single, double, or triple insertions. The resulting vectors were sequenced using CMV-F and BGH-rev primers.
Cell Culture and Transfection. HEK293T cells were cultured in modified Eagle's medium (DMEM) with 10% fetal bovine serum in humidified 37° C. incubator with 5% CO2. Cells were seeded at a density of 3×10^5 cells/mL one day prior to transient transfection using Fugene 6 transfection reagent (Promega) according to the manufacturer's instructions. At 24 h post-transfection, cells are harvested for analyses.
NanoBiT and Inhibition Assay. White opaque plates were coated with 50 μL of 0.001% poly-L-lysine for at least 15 min at 37° C. and air-dried before seeding 3×10^5 cells/mL HEK239T cells. […] Luminescence is immediately quantified using BioTek Cytation 5 with a gain of 135 and an integration time of 1 s.

NLRP3 inflammasome = NLRP3 inflammasome (Homo sapiens, UniProt Q9ULZ3); test: Inflammasome activation in LPS-primed THP-1 macrophages stably expressing ASC2, stimulated with nigericin; assay type: cell-based; design: endogenous in cells; host or cells: THP-1 macrophages (PMA-differentiated, LPS-primed); settings: THP-1 macrophages, ASC2-LSSmOrange, LPS 3 h
Chain of NLRP3 inflammasome (Q9ULZ3 whole entry): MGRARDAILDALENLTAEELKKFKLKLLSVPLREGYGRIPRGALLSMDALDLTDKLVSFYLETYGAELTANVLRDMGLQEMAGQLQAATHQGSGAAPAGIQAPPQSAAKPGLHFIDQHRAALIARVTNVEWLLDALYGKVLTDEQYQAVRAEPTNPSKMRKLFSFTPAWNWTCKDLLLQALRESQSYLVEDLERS
Description: Generation of THP-1 and IMACs stable cells. […] Single cell clones were generated for THP-1 cells stably expressing ASC2-LSSmOrange.
(§1) Inflammasome activation assays.
ImageStream imaging flow cytometry.

[2] = test system: H1N1 IAV, strain A/NWS/33; assay type: in vivo, mouse
NLRP1 inflammasome = NLRP1 inflammasome (Homo sapiens, UniProt Q9ULZ3); test: Talabostat-induced inflammasome activation in N/TERT-1 keratinocytes stably expressing ASC2-mCitrine
Chain of NLRP1 inflammasome (Q9ULZ3 whole entry): as above
Description: (§2) Immortalized N/TERT-1 keratinocyte were cultured in KSFM media (Gibco) supplemented with 30 g/ml BPE, 0.1 ng/ml rEGF, and 0.3 mM calcium chloride.
(§3) GP2-293 cells stably expressing gag and pol proteins, were co-transfected with pVSV-G envelope vector and mCitrine-only empty vector, bat or human ASC2-mCitirine pQCXIH vector for 48 h. Supernatants containing retroviruses were collected, centrifuged at 500 g for 10 min. N/TERT-1 cells were transduced with low MOI of retrovirus for 24 h to obtain a single viral copy per transduced cell. 72 h post-transduction, cells were selected by 20 μg/mL Hygromycin B antibiotic for at least 1 week to ensure stable expression. The stable cells were FACS-sorted for equal fluorescent intensity to ensure the same expression levels across cell lines.
(§4) Inflammasome activation assay. N/TERT-1 cells in KSFM without antibiotics were seeded at 1.8×10^5/mL into 96-well plates overnight. Cells were treated with various concentrations (0, 20, 200 μM) of talabostat dissolved in DMSO for 24 h. DMSO concentration is controlled at 0.5% for all treated wells.

[3] = molecular target: NLRP1 inflammasome (Homo sapiens); test: as above; settings: N/TERT-1, talabostat 0, 20, 200 μM, 24 h; FIG. 25B
Chain of NLRP1 inflammasome (Homo sapiens) (Q9ULZ3 whole entry): as above
Description: as §2, §3, §4

[4] = test system: peritonitis induced by ASC specks; test: Peritonitis induced by ASC specks in bat ASC2/rtTA mice; assay type: in vivo, mouse; settings: bat ASC2/rtTA vs WT mice, oral Dox 7 days, ASC-mPlum specks i.p., 4 h
AIM2 inflammasome = molecular target: T2, AIM2 inflammasome (Mus musculus, UniProt Q9EPB4); test: Inflammasome activation in LPS-primed BMDMs of bat ASC2/rtTA mice transfected with poly(dA:dT); assay type: cell-based; settings: Dox, LPS 3 h, poly(dA:dT) transfection 4 h, FIG. 5D, 5E
T2 construct: endogenous in cells; host or cells: BMDMs of wild-type and bat ASC2/rtTA mice
T2 sequence (Q9EPB4 1-193): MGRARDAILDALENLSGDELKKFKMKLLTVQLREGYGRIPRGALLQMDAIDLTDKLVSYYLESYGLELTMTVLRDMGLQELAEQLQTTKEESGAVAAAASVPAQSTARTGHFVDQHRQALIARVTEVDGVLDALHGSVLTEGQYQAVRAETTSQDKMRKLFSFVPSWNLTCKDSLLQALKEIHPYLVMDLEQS
Description: as §1

B1: bat ASC2: ASC2 (PYRIN-only protein) of the bat Pteropus alecto, SEQ ID NO:11; expressed from vectors or as Dox-inducible transgene (protein)
chain: MGKKRDAILEALENLTADELKKFKLKLGAAPLRQGFRNIPRGALGPLDAVDLTDKLVAFYCEDYGAELTAVVLRDIGMQEEAERLQGVA
PYD-PYD protein-protein interaction (NanoBiT luminescence signal) [1]: inhibit PYD-PYD protein-protein interaction | Pyroptotic cell death (LDH release) (NLRP3 inflammasome; nigericin 2 h, compared with human ASC2, FIG. 3E): significantly more downstream inhibition | Secretion of IL-1β in the supernatants (NLRP3 inflammasome; nigericin 2 h, compared with human ASC2, FIG. 3F): significantly more downstream inhibition | Induction of ASC specks (NLRP3 inflammasome; nigericin, FIG. 4B, 4C): inhibited the induction of ASC specks more potently than human ASC2 | Level of IL-1β in lung tissue extracts ([2]; 3 dpi, bat ASC2/rtTA vs WT mice, FIG. 10B): significantly reduced | Lung viral titres ([2]; 3 dpi, bat ASC2/rtTA vs WT mice, FIG. 10C): no significant different | Mortality ([2]; bat ASC2/rtTA mice, IAV 0.5×10^5 pfu intranasal one day after Dox, 14 days post-infection, 100% of WT mice succumbed): 50% | IL-1β secretion (NLRP1 inflammasome; N/TERT-1, talabostat 0, 20, 200 μM, 24 h, FIG. 25C): reduces IL-1β secretion | Potency in inhibiting NLRP1 inflammasomes compared with human ASC2 (NLRP1 inflammasome; human skin cells (N/TERT-1)): significantly more potent | Cell death (LDH release) [3]: reduces cell death | Recruitment of neutrophils (peritoneal lavage) ([4]; FIG. 8E): suppressed | IL-1β release (peritoneal lavage) ([4]; FIG. 8F): suppressed | Activation of AIM2 inflammasome (LDH release, IL-1β) (AIM2 inflammasome): suppressed the activation
